The target in this experiment is RepD replication initiation protein of Staphylococcus aureus plasmid pC221 (wild type) (Staphylococcus aureus (plasmid pC221)) (UniProt P03065). The experiment can be described thus: AUC.

We go through 1 molecule from PMC2847222.

Chain of UniProt P03065 (P03065 whole entry): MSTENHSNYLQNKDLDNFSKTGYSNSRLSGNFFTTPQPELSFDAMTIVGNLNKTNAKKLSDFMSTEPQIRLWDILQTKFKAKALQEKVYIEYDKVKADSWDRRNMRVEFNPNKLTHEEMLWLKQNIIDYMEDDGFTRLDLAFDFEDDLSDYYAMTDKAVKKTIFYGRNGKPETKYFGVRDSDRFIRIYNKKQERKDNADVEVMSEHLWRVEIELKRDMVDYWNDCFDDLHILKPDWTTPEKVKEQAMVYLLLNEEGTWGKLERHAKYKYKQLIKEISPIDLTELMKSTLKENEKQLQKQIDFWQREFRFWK

B1: Bacillus stearothermophilus PcrA helicase (enzyme)
chain: MNFLSEQLLAHLNKEQQEAVRTTEGPLLIMAGAGSGKTRVLTHRIAYLMAEKHVAPWNILAITFTNKAAREMRERVQSLLGGAAEDVWISTFHSMCVRILRRDIDRIGINRNFSILDPTDQLSVMKTILKEKNIDPKKFEPRTILGTISAAKNELLPPEQFAKRASTYYEKVVSDVYQEYQQRLLRNHSLDFDDLIMTTIQLFDRVPDVLHYYQYKFQYIHIDEYQDTNRAQYTLVKKLAERFQNICAVGDADQSIYRWRGADIQNILSFERDYPNAKVILLEQNYRSTKRILQAANEVIEHNVNRKPKRIWTENPEGKPILYYEAMNEADEAQFVAGRIREAVERGERRYRDFAVLYRTNAQSRVMEEMLLKANIPYQIVGGLKFYDRKEIKDILAYLRVIANPDDDLSLLRIINVPKRGIGASTIDKLVRYAADHELSLFEALGELEMIGLGAKAAGALAAFRSQLEQWTQLQEYVSVTELVEEVLDKSGYREMLKAERTIEAQSRLENLDEFLSVTKHFENVSDDKSLIAFLTDLALISDLDELDGTEQAAEGDAVMLMTLHAAKGLEFPVVFLIGMEEGIFPHNRSLEDDDEMEEERRLAYVGITRAEEELVLTSAQMRTLFGNIQMDPPSRFLNEIPAHLLETASRRQAGASRPAVSRPQASGAVGSWKVGDRANHRKWGIGTVVSVRGGGDDQELDIAFPSPIGIKRLLAKFAPIEKV
As for B1, the Kd was 98.5 nM.

In general, Kd refers to the concentration at which binding is half-saturated.
